Laboratory results: paper PMC2671166, “Site Directed Mutagenesis of Amino Acid Residues at the Active Site of Mouse Aldehyde Oxidase AOX1” (PLoS ONE, 2009)

Target: the molecule itself
Experiment: SEC; purified mAOX1; single peak with an approximate molecular mass of 300 kDa; data not shown

B1: Mouse aldehyde oxidase AOX1 (recombinant, wild-type) (enzyme, UniProt O54754 1-1333, looked up)
chain: MDPIQLLFYVNGQKVVEKNVDPEMMLLPYLRKNLRLTGTKYGCGGGGCGACTVMISRYNPSTKAIRHHPVNACLTPICSLHGTAVTTVEGLGNTRTRLHPIQERIAKCHGTQCGFCTPGMVMSMYALLRNHPEPTLDQLTDALGGNLCRCTGYRPIIDACKTFCKASACCQSKENGVCCLDQEINGLAESQEEDKTSPELFSEEEFLPLDPTQELIFPPELMRIAEKQPPKTRVFYGERVTWISPVTLKELVEAKFKYPQAPIVMGYTSVGPEVKFKGVFHPIIISPDRIEELGVISQARDGLTLGAGLSLDQVKDILADIVQKLPEEKTQTYRALLKHLRTLAGSQIRNMASLGGHIVSRHLDSDLNPLLAVGNCTLNLLSKDGERRIPLSEEFLRKCPEADLKPQEVLVSVNIPWSRKWEFVSAFRQAQRQQNALAIVNSGMRVLFREGGGVIEELSILYGGVGSTIISAKNSCQRLIGRPWNEGMLDTRCRLVLDEVTLAASAPGGKVEFKRTLIISFLFKFYLEVSQGLKREDPGHSPSLAGNHESALDDLHSKHPWRTLTHQNVDPAQLPQDPIGRPIMHLSGIKHATGEAIYCDDMPAVDRELFLTFVTSSRAHAKIVSIDLSEALSLPGVVDIITADHLQEANTFGTETFLATDEVHCVGHLVCAVIADSETRAKQAAKQVKVVYQDLAPLILTIEEAIQHKSFFKSERKLECGNVDEAFKIVDQILEGEIHIGGQEHFYMETQSMLVVPKGEDGEIDIYVSTQFPKYIQDIVAATLKLSANKVMCHVRRVGGAFGGKVGKTSILAAITAFAASKHGRAVRCILERGEDMLITGGRHPYLGKYKAGFMNEGRILALDVEHYCNGGCSLDESLWVIEMGLLKLDNAYKFPNLRCRGWACRTNLPSNTALRGFGFPQAGLVTEACITEVAIKCGLSPEQVRTINMYKHVDTTHYKQEFSAKALSECWRECMAKCSYFERKAAIGKFNAENSWKKRGMAVIPLKFPVGIGSVAMGQAAALVHIYLDGSALVSHGGIEMGQGVHTKMIQVVSRELRMPMSSVHLRGTSTETVPNTNASGGSVVADLNGLAVKDACQTLLKRLEPIISKNPQGTWKDWAQTAFDQSISLSAVGYFRGYESNIDWEKGEGHPFEYFVFGAACSEVEINCLTGDHKNIRTNIVMDVGHSINPALDIGQVEGAFIQGMGLYTIEELSYSPQGTLYSRGPNQYKIPAICDIPTEMHISFLPPSEHSNTLYSSKGLGESGVFLGCSVFFAIHDAVKAARQERGISGPWKLNSPLTPEKIRMACEDKFTKMIPRDEPGSYVPCNIPV
notes: mouse aldehyde oxidase AOX1, cDNA cloned from mouse CD1 liver into the NdeI-SalI sites of pTrcHis (plasmid pSL205); band of 150 kDa on SDS-PAGE; Holds Moco, two [2Fe-2S] clusters and FAD as cofactors; also called mAOX1; mAOX1-WT; source: E. coli TP1000, coexpressed with mMCSF, purified (Ni-NTA, Superose 12, benzamidine sepharose)
stoichiometry N: 2
